Assay: yeast display, Sf9 membrane polyspecificity reagent, FACS + sequencing; frameworks hold sequencing errors
Outline: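 Nanobodies from a synthetic yeast display library (Saccharomyces cerevisiae BJ5465), induced 36–48 hours with galactose, were stained 1 hour at 4 °C with 10% biotinylated, detergent-solubilized Sf9 membrane reagent, enriched on streptavidin microbeads, then FACS-sorted. Anti-HA (expression) and streptavidin (reagent binding) fluorescence set low and high (top ~1%) gates. Polyreactivity labels come from the gate of origin. Genes were colony-PCR amplified, MiSeq 2 × 250 sequenced and filtered by CDR length.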
With “QVQLVESGGGLVQAGGSLRLSCAASGRILWAYAMGWYRQAPGKEREFVAAISWSTGSTYYADSVKGRFTISRDNAKNTVNIQLNSLQPDDTAVYYCAAQLAKTIRGRGYNSWGQGTQVTVSS” the “polyreactivity (PSR sort gate)” value was “low polyreactivity”.
For “QVQLVESGGGLVQAGGSLRLSCAASGRILYHYAMGWYRQAPGKERELVAAITFSGDTTYYADSVKGRFTISRDNAKNTVYLQMNSLKPEDTAVYYCNTDYYWNYVSRLYDYWGQGTQVTVSS”, the “polyreactivity (PSR sort gate)” value was “high polyreactivity”.
With “QVQLVESGGGLVQAGGSLRLSCAASGRILYPYAMGWYRQAPGKERELVAAISSRSANTYYADSVKGRFTISRDNAKNTVYLQMNSLKPEDTAVYYCAARSLGLGFGHWGQGTQVTVSS” the “polyreactivity (PSR sort gate)” value was “high polyreactivity”.
In the case of “QVQLVESGGGLVQAGGSLRLSCAASGRILYRYVMGRYRQAPGKERELVAGISWSGGSTYYADSVKGRFTISSDTAKNTVYLQMNSLKPEVTAVYYCASTFRTYAPRPYQGDYWGQGTQVTVSS”, the “polyreactivity (PSR sort gate)” value was “low polyreactivity”.
In the case of “QVQLVESGGGLVQAGGSLRLSCAASGRILYSYAMGWYRQEPGQEREFVAAIRRSGGSTYYADSVKGRFTISRDNAQNTVYLQMNSLKPEETAVDYCAAGRRSSGSYDYWGQGTQVTVSS”, the “polyreactivity (PSR sort gate)” value was “high polyreactivity”.
In the case of “QVQLVESGGGLVQAGGSLRLSCAASGRILYVNAMGWSRQAPGKERELVAAISWRGGRTYYADSVKGRFTISRDTAKNTVYLQMNSLKPEDTAVYYCAARARGGYQRDYWGQGTQVTVSS”, the “polyreactivity (PSR sort gate)” value was “high polyreactivity”.
In the case of “QVQLVESGGGLVQAGGSLRLSCAASGRILYYYAMGWSRQAPGKERELVAGITTDDSTNYADSVKGRFTISRDNAKNTVYLQMNSLKPEDTAVYYCAAKYVHGEYDYWGQGTQVTVSS”, the “polyreactivity (PSR sort gate)” value was “low polyreactivity”.
In the case of “QVQLVESGGGLVQAGGSLRLSCAASGRILYYYAMGWYRQAPGKERELVAAITWGGGSTYYADSVKGRFTISRDNAKKSVYLQMNSLTPEETAVYYCNRTFRSRLPTSRGYEYWGQGTQVTVSS”, the “polyreactivity (PSR sort gate)” value was “low polyreactivity”.
For “QVQLVESGGGLVQAGGSLRLSCAASGRIRYAMGWYRQAPGKERELVAGIRWSGTSTYYADSVKGRFTISRDNAKNTVYLQMNSLKPEDTAVYYCNAKAQSRYVRYGYWGQGTQVSVSS”, the “polyreactivity (PSR sort gate)” value was “high polyreactivity”.
In the case of “QVQLVESGGGLVQAGGSLRLSCAASGRISDFYAMGWNRQAPGKEREFVAAMSWSGGSTSYADSVKGRFTISRDNAKNTVYLQMNSLKPEDTSVYYCSAKGSRGNSAWYGYWGQGTQVTVSS”, the “polyreactivity (PSR sort gate)” value was “high polyreactivity”.
In the case of “QVQLVESGGGLVQAGGSLRLSCAASGRISDRNAMGWYRQAPGKERELVATIRSGGSTNYADSVKGRFTISPDNAMNTVYLQMNSLKPEDTAVYYCATAKLTWRSQGLDYWGQGTQVTVSS”, the “polyreactivity (PSR sort gate)” value was “low polyreactivity”.
With “QVQLVESGGGLVQAGGSLRLSCAASGRISGINVMGWYRQAPGKERELVAAISRSGARTYYADSVKGRFTISRDNAKNTVYLQMNSLKPEDTAVYYCNAANLKYPKYVQGDYWGQGTQVTVSS” the “polyreactivity (PSR sort gate)” value was “high polyreactivity”.
In the case of “QVQLVESGGGLVQAGGSLRLSCAASGRISHYNAMGWYRQAPGKERELVAAISSRGGSTYYADSVKGRFTISRDIAKNTVYLQMNSLKPEDTAVYYCADTAGYWGQGTQVTVSS”, the “polyreactivity (PSR sort gate)” value was “high polyreactivity”.
For “QVQLVESGGGLVQAGGSLRLSCAASGRISIWYDMGWYRQAPGKERELVASITSGGSTYADSVKGRFTISRDNAKNTVYLQMNSLKPEDTAVYYCAADEAPYGTSEQRHSRFSHWGQGTQVTVSS”, the “polyreactivity (PSR sort gate)” value was “low polyreactivity”.
With “QVQLVESGGGLVQAGGSLRLSCAASGRISLRILWDGIDRRLGKKGSWLPLLTNTGSTNYADSVKGRFTISRDNAKNTVYLQMNSLKPEDTAVYDCNADPTGGSSYPAYFEYDYWGQGTQVTVSS” the “polyreactivity (PSR sort gate)” value was “low polyreactivity”.
In the case of “QVQLVESGGGLVQAGGSLRLSCAASGRISLSNAMGWYKQAPGKEREFVAAITKRSDRTYYADSVKGRFTISRDNAKNTVYLQMNSLKPEDTAVYYCAAKPLFGTRDDYWGQGTQVTVSS”, the “polyreactivity (PSR sort gate)” value was “low polyreactivity”.
With “QVQLVESGGGLVQAGGSLRLSCAASGRISPSYAMGWYRHATGKERELVAAISRGGSTSYADSVKGLFTISRDNAKNTVYLQMNSLKPEDTAVYYCSTRGPRYRNYYWGQGTQVTVSS” the “polyreactivity (PSR sort gate)” value was “high polyreactivity”.
In the case of “QVQLVESGGGLVQAGGSLRLSCAASGRISRLNAMGWYRQAPGKERELVATISGRGGGTYYADSVKGRFTISRDNAKNTVYLQMNSLKPEDTAVYYCAVRGLYQGRRRYSSEYDYWGQGTQVTVSS”, the “polyreactivity (PSR sort gate)” value was “high polyreactivity”.
With “QVQLVESGGGLVQAGGSLRLSCAASGRISRTNAMGWYRQAPGKERELVATITRGGNTNYADSVKGRFTISRDNAKNTVYLPMNSLKPEDTAVYYCAALGRYLRTYRGYVWQFDSWGQGTKVTVSS” the “polyreactivity (PSR sort gate)” value was “high polyreactivity”.
In the case of “QVQLVESGGGLVQAGGSLRLSCAASGRISRVYAMGWYRQAPGKERELVASITGRGGSTYYADSVKGRFTISRDNAKNTVYLQMNSLKPEDTAVYYCAALIDVITGQYDYWGQGTQVTVSS”, the “polyreactivity (PSR sort gate)” value was “high polyreactivity”.
In the case of “QVQLVESGGGLVQAGGSLRLSCAASGRISSSYAMGWYRQAPGKERELVAAIDNSDDTTYYADSVKGRFTISLDNAKNTVYLQMNSLKPEDTAVYSCATLVYSSELGYWGQGTQVTVSS”, the “polyreactivity (PSR sort gate)” value was “high polyreactivity”.
With “QVQLVESGGGLVQAGGSLRLSCAASGRISSSYDMGWYIQAPAKDRELVAAISSGSSTYYAHSVKVRFTISRDNAKNTVYLQMNSLKREDTAVYYCAKLHYAHYWGQGTQVTVSS” the “polyreactivity (PSR sort gate)” value was “low polyreactivity”.
In the case of “QVQLVESGGGLVQAGGSLRLSCAASGRISTRYTMGWYRQAPGKERELVAAISGNAGRTYYADSVKGRFTISRDNAKNTVYVQMNSLKPADTAVYYCARESGYRAYEIQFYYWGQGTQVTVSS”, the “polyreactivity (PSR sort gate)” value was “high polyreactivity”.
With “QVQLVESGGGLVQAGGSLRLSCAASGRISTTYSMGWYRPAPGKERELVAAITIGGGTNYADSVKGRFTISRDNAKNTVYLQMNSLKPEDTAVFYCNADRTASFAYDYWGQGTQVTVSS” the “polyreactivity (PSR sort gate)” value was “low polyreactivity”.
In the case of “QVQLVESGGGLVQAGGSLRLSCAASGRISVKYAMGWYRQAPGKERELVAANDSSGGSTSYADSVKGRFTISRDNAKNTVYLQMNSLKPEDTAVYYCADDTWYRAGYFVFYYDYWGQGTQVTVSS”, the “polyreactivity (PSR sort gate)” value was “low polyreactivity”.
In the case of “QVQLVESGGGLVQAGGSLRLSCAASGRISVRNTMGWYRQAPGKERELVARISSTGGSTYYADSVKGRFTISRDNAKNTVYLQMNSLKPEDTAVYYCNAKYYTRYPYLGKGDYWGQGTQVTVSS”, the “polyreactivity (PSR sort gate)” value was “high polyreactivity”.
For “QVQLVESGGGLVQAGGSLRLSCAASGRISVTYAMGWYRQAPGKERELVAAINTSGGTTYYADSVKGRFTISRDNAKNTVYLQMNSLKPEDTAVYYCNAVFYGGVGDNDYWGQGTQVTVSS”, the “polyreactivity (PSR sort gate)” value was “high polyreactivity”.
With “QVQLVESGGGLVQAGGSLRLSCAASGRISWGYAMGWYRPAPGKERELVAVINFNGGRTYYADSVKGRFTISRDNAKNTVYLQMNSLKPEDTAVYYCAADSGYEYDYWGQGTQVTVSS” the “polyreactivity (PSR sort gate)” value was “low polyreactivity”.
For “QVQLVESGGGLVQAGGSLRLSCAASGRISYLYTMGWYRQAPGKERELVAAIRWRDGSTYYADSVKGRFTISRDNAKNTVYLQMNSLKPEDTAVYYCASTPVGFYWYDYWGQGTQVTVSS”, the “polyreactivity (PSR sort gate)” value was “low polyreactivity”.
With “QVQLVESGGGLVQAGGSLRLSCAASGRISYSYAMGWYRQAPGKERELVAAISYSGGTTYYADSVKGRFTISRDNAKNTVYLQMNSLKPEDTAVYYCAVDGYDTYGFNGYYIRSGYWGQGTQVTVSS” the “polyreactivity (PSR sort gate)” value was “low polyreactivity”.

Source: the nanobody polyreactivity screen of Harvey et al. (2022)
